Experimental findings from the supplement of paper PMC10598134 are described below.

± gives the standard deviation.

The series in a line: collision cross section of modified peptide (TIMS, N2, iRT-aligned); higher = larger / more extended gas-phase ion. In short, it runs like this: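 Synthetic peptide pools (~100 fmol/µL in 2% acetonitrile/0.1% formic acid, iRT standard spiked 1:40) were separated on a 120-min nanoflow C18 gradient at 60 °C. They were analysed on a timsTOF Pro/HT (dda-PASEF, nitrogen, ~2.4 mbar) and identified with MaxQuant. 1/K0 was calibrated with three reference ions and aligned run-wise to the median iRT peptide deviation. Collision cross section came from the Mason-Schamp equation, averaging 1–3 technical replicates of the most abundant feature per charge state.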

[1] abbreviates: charge state: 2, modification: Formyl.
Where [2] appears, read: charge state: 2, modification: Butyryl.
[3] abbreviates: charge state: 2, modification: Biotin.
Where [4] appears, read: charge state: 2, modification: Citrullination (R).
Setting [5] is: charge state: 3, modification: Citrullination (R).
Setting [6] is: charge state: 2, modification: GlyGly (K).
Where [7] appears, read: charge state: 3, modification: GlyGly (K).
[8] abbreviates: charge state: 3, modification: Biotin.
Where [9] appears, read: charge state: 2, modification: Phospho (Y).
Setting [10] is: charge state: 2, modification: Acetyl (K).
[11] abbreviates: charge state: 3, modification: Acetyl (K).
The mark [12] stands for this setting: charge state: 2, modification: Glutarylation.
[13] abbreviates: charge state: 2, modification: Propionyl.
The mark [14] stands for this setting: charge state: 3, modification: Trimethyl (K).
The mark [15] stands for this setting: charge state: 3, modification: Glutarylation.
The mark [16] stands for this setting: charge state: 3, modification: Dimethyl (K).
Setting [17] is: charge state: 2, modification: Dimethyl (K).
The mark [18] stands for this setting: charge state: 3, modification: HexNAc (ST).
[19] abbreviates: charge state: 2, modification: hydroxyisobutyryl.
Where [20] appears, read: charge state: 3, modification: hydroxyisobutyryl.
The mark [21] stands for this setting: charge state: 2, modification: Succinyl.
Where [22] appears, read: charge state: 3, modification: Succinyl.
[23] abbreviates: charge state: 2, modification: Methyl (K).
The mark [24] stands for this setting: charge state: 3, modification: Methyl (K).
Where [25] appears, read: charge state: 2, modification: Malonyl.

Under setting [1], “SNEEGSEEKGPEVR [_SNEEGSEEK(Formyl)GPEVR_]” had a collision cross section of 397.09 ± 0.55 Å².
With “DTGEKLTVAENEAETK [_DTGEK(Butyryl)LTVAENEAETK_]”, under setting [2], the collision cross section is given as 448.65 ± 0.25 Å².
Sequence TLQKQSVVYGGK [_TLQK(Biotin)QSVVYGGK_] showed a collision cross section under setting [3] of 406.33 Å².
Consider “GSGLGARGSSYGVTSTESYK [_GSGLGAR(Methyl (R))GSSYGVTSTESYK_]”, for which, for the setting “charge state: 3, modification: Methyl (R)”, the collision cross section is given as 519.94 ± 0.91 Å².
“STNVTVAAARGIK [_STNVTVAAAR(Citrullination (R))GIK_]” registered a collision cross section under setting [4] of 395.23 ± 1.3 Å² and a collision cross section under setting [5] of 471.03 Å².
As to “VDIDAPDVSIEGPDAKLK [_VDIDAPDVSIEGPDAK(GlyGly (K))LK_]”, the collision cross section stood at 470.72 ± 1.4 Å² under setting [6] and 499.87 ± 1.9 Å² under setting [7].
“DTPTSAGPNSFNKGK [_DTPTSAGPNSFNK(Biotin)GK_]” displayed a collision cross section under setting [3] of 428.73 ± 1.1 Å² and a collision cross section under setting [8] of 478.46 Å².
As for AIQLNPSYIR [_AIQLNPSY(Phospho (Y))IR_], the collision cross section under setting [9] amounted to 384.89 ± 0.65 Å².
With LSITGTYDLK [_LSITGTY(Nitro (Y))DLK_], for the setting “charge state: 2, modification: Nitro (Y)”, the collision cross section came to 368.48 ± 0.22 Å².
Consider “ITESVAETAQTIKK [_ITESVAETAQTIK(Acetyl (K))K_]”, for which the collision cross section under setting [10] was determined as 418.11 ± 1.3 Å² and the collision cross section under setting [11] is reported as 510.01 ± 1.7 Å².
Under setting [9], IGAEVYHHLK [_IGAEVY(Phospho (Y))HHLK_] gave a collision cross section of 385.73 ± 0.77 Å².
Take “VETTVTSLKTK [_VETTVTSLK(Gluratylation)TK_]”: under setting [12], the collision cross section was 392.12 ± 0.61 Å².
Consider “LQAAYAGDKADDIQK [_LQAAYAGDK(Propionyl)ADDIQK_]”, for which the collision cross section under setting [13] was 432.96 ± 1.1 Å².
Turning to “YILIPASQQPK [_Y(Phospho (Y))ILIPASQQPK_]”, under setting [9], the collision cross section amounted to 405.41 ± 0.64 Å².
On to “AAYQAAIRGVGSAQSR [_AAYQAAIR(Citrullination (R))GVGSAQSR_]”, for which the collision cross section runs as follows: under setting [4], 418.72 ± 0.97 Å²; under setting [5], 501.27 ± 7.8 Å².
As to “TQDQISNIKYHEEFEK [_TQDQISNIK(Trimethyl (K))YHEEFEK_]”, under setting [14], the collision cross section came to 544.72 ± 0.9 Å².
With “LFVGGIKEDTEEHHLR [_LFVGGIK(Gluratylation)EDTEEHHLR_]”, the collision cross section is 501.63 ± 1.9 Å² under setting [12] and 544.37 ± 0.97 Å² under setting [15].
Turning to “TFGKAAGPSLSHTSGGTQSK [_TFGK(Dimethyl (K))AAGPSLSHTSGGTQSK_]”, the collision cross section under setting [16] is 547.87 ± 1.3 Å².
As for TEVLSPNSKVESK [_TEVLSPNSK(Biotin)VESK_], the collision cross section by setting is: under setting [3], 425.18 ± 3.5 Å²; under setting [8], 487.32 ± 1.7 Å².
Take SEASSEFAKK [_SEASSEFAK(Dimethyl (K))K_]: the collision cross section by setting is: under setting [17], 358.79 ± 0.58 Å²; under setting [16], 422.66 ± 2.8 Å².
Turning to “KSQAGASELGPFSDPR [_KSQAGASELGPFS(HexNAc (ST))DPR_]”, the collision cross section under setting [18] is on record as 503.83 ± 1.1 Å².
In the case of “TFGKAAGPSLSHTSGGTQSK [_TFGK(hydroxyisobutyryl)AAGPSLSHTSGGTQSK_]”, the collision cross section was 498.68 ± 0.33 Å² under setting [19] and 512.39 ± 2.8 Å² under setting [20].
Sequence “DYSAPVNFISAGLKK [_DYSAPVNFISAGLK(GlyGly (K))K_]” had a collision cross section under setting [6] of 449.5 ± 1.6 Å² and a collision cross section under setting [7] of 532.12 ± 1.1 Å².
As to “ITLSKHQNVQLPR [_ITLSK(Gluratylation)HQNVQLPR_]”, the collision cross section by setting is: under setting [12], 422.98 ± 0.48 Å²; under setting [15], 526.02 ± 27 Å².
On to “GFGRGGAESHTFK [_GFGR(Citrullination (R))GGAESHTFK_]”, for which the collision cross section runs as follows: under setting [4], 413.94 ± 1 Å²; under setting [5], 465.74 ± 2.2 Å².
TLDEILQEKK [_TLDEILQEK(Succinyl)K_] displayed a collision cross section under setting [21] of 382.2 ± 5.9 Å².
Take “IPQEKCILQTDVK [_IPQEK(Succinyl)CILQTDVK_]”: the collision cross section under setting [21] was 432.46 ± 0.51 Å².
Regarding “LQDVSGQLSSSKK [_LQDVSGQLSSSK(GlyGly (K))K_]”, the collision cross section came out at 438.61 ± 1.4 Å² under setting [6] and 490.05 ± 4.9 Å² under setting [7].
With “DYSAPVNFISAGLKK [_DYSAPVNFISAGLK(Biotin)K_]”, the collision cross section is, setting by setting: under setting [3], 458.59 ± 0.47 Å²; under setting [8], 548.62 Å².
Take “DSSPTTNSKLSALQR [_DSSPTTNSK(Succinyl)LSALQR_]”: the collision cross section reads like this: under setting [21], 428.81 ± 1.1 Å²; under setting [22], 496.14 ± 4.3 Å².
For VNALKNLQVK [_VNALK(Methyl (K))NLQVK_], the collision cross section is, setting by setting: under setting [23], 371.4 ± 0.45 Å²; under setting [24], 420.52 ± 3.9 Å².
Regarding “AGQKLIDVNHYAK [_AGQK(Trimethyl (K))LIDVNHYAK_]”, under setting [14], the collision cross section is 474.3 ± 1.8 Å².
As to VGEFSGANKEK [_VGEFSGANK(Formyl)EK_], the collision cross section under setting [1] was 358.59 ± 1.4 Å².
For the sequence “VPQAQPTKPALK [_VPQAQPT(HexNAc (ST))KPALK_]”, the collision cross section was determined as 409.35 ± 0.62 Å² (charge state: 2, modification: HexNAc (ST)) and 481.8 ± 0.17 Å² under setting [18].
For the sequence “LFVGGIKEDTEEHHLR [_LFVGGIK(GlyGly (K))EDTEEHHLR_]”, the collision cross section reads like this: under setting [6], 499.18 Å²; under setting [7], 544.61 ± 1.1 Å².
Consider “DAEAAEATAEGALKAEK [_DAEAAEATAEGALK(Biotin)AEK_]”, for which the collision cross section under setting [3] came out at 451.86 Å² and the collision cross section under setting [8] was determined as 551.51 Å².
Under setting [25], “LQDVSGQLSSSKK [_LQDVSGQLSSSK(Malonyl)K_]” yielded a collision cross section of 397.79 ± 0.61 Å².
“YEQEHAAIQDKLFQVAK [_YEQEHAAIQDK(hydroxyisobutyryl)LFQVAK_]” had a collision cross section under setting [20] of 519.87 ± 2 Å².
On to “GTISAPGKVVTAAAQAK [_GTISAPGK(hydroxyisobutyryl)VVTAAAQAK_]”, for which the collision cross section reads like this: under setting [19], 447.84 ± 0.78 Å²; under setting [20], 524.07 ± 2 Å².
For the sequence “SGKFTQQDIDEAK [_SGK(GlyGly (K))FTQQDIDEAK_]”, the collision cross section is, setting by setting: under setting [6], 414.34 ± 1.9 Å²; under setting [7], 476.61 ± 1.1 Å².
Regarding “SLGEPAAGEGSAKR [_SLGEPAAGEGSAK(Succinyl)R_]”, the collision cross section is, setting by setting: under setting [21], 381.88 ± 0.8 Å²; under setting [22], 476.57 ± 0.7 Å².
Consider “SLEEEGAAHSGKR [_SLEEEGAAHSGK(Methyl (K))R_]”, for which the collision cross section is recorded as 413.71 ± 2.6 Å² under setting [23] and 459.06 ± 3.1 Å² under setting [24].
LTEKELAEAASK [_LTEK(Formyl)ELAEAASK_] came in with a collision cross section under setting [1] of 382.92 ± 0.9 Å².
As for “FSAYIKNSNPALNDNLEK [_FSAYIK(Butyryl)NSNPALNDNLEK_]”, the collision cross section runs as follows: under setting [2], 487.55 ± 1 Å²; (charge state: 3, modification: Butyryl) 548.32 ± 1.1 Å².
With “VYIASSSGSTAIKK [_VYIASSSGSTAIK(Formyl)K_]”, the collision cross section is, setting by setting: under setting [1], 408.95 ± 1.8 Å²; (charge state: 3, modification: Formyl) 497.96 ± 1.5 Å².
Take “ITLSKHQNVQLPR [_ITLSK(Acetyl (K))HQNVQLPR_]”: the collision cross section by setting is: under setting [10], 436.23 ± 3.2 Å²; under setting [11], 526.67 ± 2.1 Å².
As to “LLEQKTQESQK [_LLEQK(Dimethyl (K))TQESQK_]”, the collision cross section was 409.09 ± 1.6 Å² under setting [17] and 453.46 ± 1.6 Å² under setting [16].
On to “ANLEKAQAELVGTADEATR [_ANLEK(Crotonyl)AQAELVGTADEATR_]”, for which the collision cross section is 478.55 ± 1.5 Å² (charge state: 2, modification: Crotonyl) and 577.75 ± 0.5 Å² (charge state: 3, modification: Crotonyl).
Under setting [25], LEQVEKELLR [_LEQVEK(Malonyl)ELLR_] yielded a collision cross section of 382.93 ± 0.62 Å².
Take ASNAAVKLAESK [_ASNAAVK(Malonyl)LAESK_]: the collision cross section under setting [25] came to 371.16 ± 0.62 Å².
“VYIASSSGSTAIKK [_VYIASSSGSTAIK(Trimethyl (K))K_]”: the collision cross section is 434.92 ± 0.58 Å² (charge state: 2, modification: Trimethyl (K)) and 501.36 ± 1.6 Å² under setting [14].
“DYSSGFGGKYGVQADR [_DYSSGFGGK(GlyGly (K))YGVQADR_]”: the collision cross section runs as follows: under setting [6], 440.03 ± 1.4 Å²; under setting [7], 489.79 ± 1.3 Å².
On to “SITHSTVGSKGEK [_SITHSTVGSK(GlyGly (K))GEK_]”, for which the collision cross section is 404.23 ± 1.4 Å² under setting [6] and 469.84 ± 1.3 Å² under setting [7].
For IQQELQTAKK [_IQQELQTAK(Propionyl)K_], under setting [13], the collision cross section is 379.28 ± 0.65 Å².
As for “LLIVSTTPYSEKDTK [_LLIVSTTPYSEK(Gluratylation)DTK_]”, the collision cross section is given as 462.31 ± 1.5 Å² under setting [12] and 493.7 ± 1.3 Å² under setting [15].
As to “VDVEVPDVSLEGPEGKLK [_VDVEVPDVSLEGPEGK(GlyGly (K))LK_]”, the collision cross section was found to be 462.5 ± 0.94 Å² under setting [6] and 497.08 ± 1.1 Å² under setting [7].
